From PMC2816671 (2010)
Values belong to the binder of their own block, whether it stands above or below them.

Molecular target: von Willebrand factor (Homo sapiens, UniProt P04275)
Experiment: Eu-labelled ligand solid-phase equilibrium binding

- Kd: 160 nM
B1: plasmin (protein)
chain: VVGGCVAHPHSWPWQVSLRTRFGMHFCGGTLISPEWVLTAAHCLEKSPRPSSYKVILGAHQEVNLEPHVQEIEVSRLFLEPTRKDIALLKLSSPAVITDKVIPACLPSPNYVVADRTECFITGWGETQGTFGAGLLKEAQLPVIENKVCNRYEFLNGRVQSTELCAGHLAGGTDSCQGDSGGPLVCFEKDKYILQGVTSWGLGCARPNKPGVYVRVSRFVTWIEGVMRNN

- Kd: 270 nM
B2: active-site blocked plasmin (protein)
chain 1: KVYLSECKTGNGKNYRGTMSKTKNGITCQKWSSTSPHRPRFSPATHPSEGLEENYCRNPDNDPQGPWCYTTDPEKRYDYCDILECEEECMHCSGENYDGKISKTMSGLECQAWDSQSPHAHGYIPSKFPNKNLKKNYCRNPDRELRPWCFTTDPNKRWELCDIPRCTTPPPSSGPTYQCLKGTGENYRGNVAVTVSGHTCQHWSAQTPHTHNRTPENFPCKNLDENYCRNPDGKRAPWCHTTNSQVRWEYCKIPSCDSSPVSTEQLAPTAPPELTPVVQDCYHGDGQSYRGTSSTTTTGKKCQSWSSMTPHRHQKTPENYPNAGLTMNYCRNPDADKGPWCFTTDPSVRWEYCNLKKCSGTEASVVAPPPVVLLPDVETPSEEDCMFGNGKGYRGKRATTVTGTPCQDWAAQEPHRHSIFTPETNPRAGLEKNYCRNPDGDVGGPWCYTTNPRKLYDYCDVPQCAAPSFDCGKPQVEPKKCPGR
chain 2: B1 chain
modifications: Pefabloc (AEBSF) active-site blocked

- Kd: 100 nM
B3: plasminogen (protein)
chain: EPLDDYVNTQGASLFSVTKKQLGAGSIEECAAKCEEDEEFTCRAFQYHSKEQQCVIMAENRKSSIIIRMRDVVLFEKKVYLSECKTGNGKNYRGTMSKTKNGITCQKWSSTSPHRPRFSPATHPSEGLEENYCRNPDNDPQGPWCYTTDPEKRYDYCDILECEEECMHCSGENYDGKISKTMSGLECQAWDSQSPHAHGYIPSKFPNKNLKKNYCRNPDRELRPWCFTTDPNKRWELCDIPRCTTPPPSSGPTYQCLKGTGENYRGNVAVTVSGHTCQHWSAQTPHTHNRTPENFPCKNLDENYCRNPDGKRAPWCHTTNSQVRWEYCKIPSCDSSPVSTEQLAPTAPPELTPVVQDCYHGDGQSYRGTSSTTTTGKKCQSWSSMTPHRHQKTPENYPNAGLTMNYCRNPDADKGPWCFTTDPSVRWEYCNLKKCSGTEASVVAPPPVVLLPDVETPSEEDCMFGNGKGYRGKRATTVTGTPCQDWAAQEPHRHSIFTPETNPRAGLEKNYCRNPDGDVGGPWCYTTNPRKLYDYCDVPQCAAPSFDCGKPQVEPKKCPGRVVGGCVAHPHSWPWQVSLRTRFGMHFCGGTLISPEWVLTAAHCLEKSPRPSSYKVILGAHQEVNLEPHVQEIEVSRLFLEPTRKDIALLKLSSPAVITDKVIPACLPSPNYVVADRTECFITGWGETQGTFGAGLLKEAQLPVIENKVCNRYEFLNGRVQSTELCAGHLAGGTDSCQGDSGGPLVCFEKDKYILQGVTSWGLGCARPNKPGVYVRVSRFVTWIEGVMRNN
